Data from patent publication US20200330603A1, “PEPTIDES FOR RENAL THERAPY” (FRED HUTCHINSON CANCER RESEARCH CENTER, priority 2015, published 2020).

Test system: trypsin
Assay: Peptide stability in the presence of trypsin, RP-HPLC
Type: in vitro ADME
Conditions: 5 μg trypsin, pH 7.0, 30 minutes at 37.5° C.
Description: (§1) This example describes peptide stability in the presence of pepsin, trypsin, a reducing agent, or elevated temperature. Peptides were first suspended in 500 µl of ddH2O to a stock concentration of 2 mg/ml. […] These reactions were then quenched with 5 μg of soybean trypsin inhibitor (I) and, in some cases, 10 mM dithiothreitol (DTT). […] Temperature stability was tested by incubating peptides in non-reducing conditions at 70° C. for 1 hour. Stability was evaluated by RP-HPLC.

Row | Sequence | Trypsin
1 | GSEVIRCSGSKQCYGPCKQQTGCTNSKCMNKVCKCYGCG [SEQ ID NO: 8] | Partially Resistant
2 | GSGCFGYKCDYYKGCCSGYVCSPTWKWCVRPGPGR [SEQ ID NO: 16] | Not Resistant
3 | GSGVPINVKCRGSRDCLDPCKKAGMRFGKCINSKCHCTP [SEQ ID NO: 11] | Resistant
4 | GSISIGIKCSPSIDLCEGQCRIRKYFTGYCSGDTCHCSG [SEQ ID NO: 7] | Partially Resistant
5 | GSNCAGYMRECKEKLCCSGYVCSSRWKWCVLPAPWRR [SEQ ID NO: 25] | Partially Resistant
6 | GSNFKVEGACSKPCRKYCIDKGARNGKCINGRCHCYY [SEQ ID NO: 19] | Partially Resistant
7 | GSQFCGTNGKPCVNGQCCGALRCVVTYHYADGVCLKMNP [SEQ ID NO: 23] | Partially Resistant
8 | GSQIDTNVKCSGSSKCVKICIDRYNTRGAKCINGRCTCYP [SEQ ID NO: 27] | Not Resistant
9 | GSQVQTNVKCQGGSCASVCRREIGVAAGKCINGKCVCYRN [SEQ ID NO: 17] | Partially Resistant
10 | GSQVSTNKKCSNTSQCYKTCEKVVGVAAGKCMNGKCICYP [SEQ ID NO: 37] | Partially Resistant
11 | GSRPTDIKCSASYQCFPVCKSRFGKTNGRCVNGLCDCF [SEQ ID NO: 24] | Partially Resistant
12 | GSSCAKPGEMCMRIKCCDGQCGCNRGTGRCFCK [SEQ ID NO: 31] | Partially Resistant
13 | GSSCAKPRENCNRMNILCCRGECVCPTFGDCFCYGD [SEQ ID NO: 10] | Not Resistant
14 | GSSDYCSNDFCFFSCRRDRCARGDCENGKCVCKNCHLN [SEQ ID NO: 29] | Partially Resistant
15 | GSSEKDCIKHLQRCRENKDCCSKKCSRRGTNPEKRCR [SEQ ID NO: 9] | Partially Resistant
16 | GSVRIPVSCKHSGQCLKPCKDAGMRFGKCMNGKCDCTPK [SEQ ID NO: 12] | Not Resistant
17 | GSVVIGQRCYRSPDCYSACKKLVGKATGKCTNGRCDC [SEQ ID NO: 33] | Not Resistant

Test system: pepsin
Assay: Peptide stability in the presence of pepsin, RP-HPLC
Type: in vitro ADME
Conditions: 20 μg pepsin, pH 1.05, 30 minutes at 37.5° C.
Description: as §1

Row | Sequence | Pepsin
18 | GSGCFGYKCDYYKGCCSGYVCSPTWKWCVRPGPGR [SEQ ID NO: 16] | Not Resistant
19 | GSGVPINVKCRGSRDCLDPCKKAGMRFGKCINSKCHCTP [SEQ ID NO: 11] | Resistant
20 | GSQIDTNVKCSGSSKCVKICIDRYNTRGAKCINGRCTCYP [SEQ ID NO: 27] | Not Resistant
21 | GSSCAKPRENCNRMNILCCRGECVCPTFGDCFCYGD [SEQ ID NO: 10] | Resistant
22 | GSVVIGQRCYRSPDCYSACKKLVGKATGKCTNGRCDC [SEQ ID NO: 33] | Resistant

Test system: not listed separately
Assay: Temperature stability at 70° C., RP-HPLC
Type: physicochemical
Conditions: non-reducing conditions, 70° C. for 1 hour
Description: as §1

Row | Sequence | Temperature (70° C.)
23 | GSEVIRCSGSKQCYGPCKQQTGCTNSKCMNKVCKCYGCG [SEQ ID NO: 8] | Resistant
24 | GSGCFGYKCDYYKGCCSGYVCSPTWKWCVRPGPGR [SEQ ID NO: 16] | Resistant
25 | GSISIGIKCSPSIDLCEGQCRIRKYFTGYCSGDTCHCSG [SEQ ID NO: 7] | Resistant
26 | GSQIDTNVKCSGSSKCVKICIDRYNTRGAKCINGRCTCYP [SEQ ID NO: 27] | Resistant
27 | GSSCAKPRENCNRMNILCCRGECVCPTFGDCFCYGD [SEQ ID NO: 10] | Resistant
28 | GSVVIGQRCYRSPDCYSACKKLVGKATGKCTNGRCDC [SEQ ID NO: 33] | Resistant

Test system: not listed separately
Assay: Peptide stability to a reducing agent (DTT), RP-HPLC
Type: physicochemical
Conditions: 10 mM DTT in PBS, room temperature, 30 minutes
Description: as §1

Row | Sequence | Reduction
29 | GSEVIRCSGSKQCYGPCKQQTGCTNSKCMNKVCKCYGCG [SEQ ID NO: 8] | Not Resistant
30 | GSGCFGYKCDYYKGCCSGYVCSPTWKWCVRPGPGR [SEQ ID NO: 16] | Not Resistant
31 | GSGVPINVKCRGSRDCLDPCKKAGMRFGKCINSKCHCTP [SEQ ID NO: 11] | Resistant
32 | GSISIGIKCSPSIDLCEGQCRIRKYFTGYCSGDTCHCSG [SEQ ID NO: 7] | Not Resistant
33 | GSNCAGYMRECKEKLCCSGYVCSSRWKWCVLPAPWRR [SEQ ID NO: 25] | Not Resistant
34 | GSNFKVEGACSKPCRKYCIDKGARNGKCINGRCHCYY [SEQ ID NO: 19] | Not Resistant
35 | GSQFCGTNGKPCVNGQCCGALRCVVTYHYADGVCLKMNP [SEQ ID NO: 23] | Not Resistant
36 | GSQIDTNVKCSGSSKCVKICIDRYNTRGAKCINGRCTCYP [SEQ ID NO: 27] | Not Resistant
37 | GSQVQTNVKCQGGSCASVCRREIGVAAGKCINGKCVCYRN [SEQ ID NO: 17] | Not Resistant
38 | GSQVSTNKKCSNTSQCYKTCEKVVGVAAGKCMNGKCICYP [SEQ ID NO: 37] | Not Resistant
39 | GSRPTDIKCSASYQCFPVCKSRFGKTNGRCVNGLCDCF [SEQ ID NO: 24] | Resistant
40 | GSSCAKPGEMCMRIKCCDGQCGCNRGTGRCFCK [SEQ ID NO: 31] | Not Resistant
41 | GSSCAKPRENCNRMNILCCRGECVCPTFGDCFCYGD [SEQ ID NO: 10] | Not Resistant
42 | GSSDYCSNDFCFFSCRRDRCARGDCENGKCVCKNCHLN [SEQ ID NO: 29] | Not Resistant
43 | GSSEKDCIKHLQRCRENKDCCSKKCSRRGTNPEKRCR [SEQ ID NO: 9] | Not Resistant
44 | GSVRIPVSCKHSGQCLKPCKDAGMRFGKCMNGKCDCTPK [SEQ ID NO: 12] | Partially Resistant
45 | GSVVIGQRCYRSPDCYSACKKLVGKATGKCTNGRCDC [SEQ ID NO: 33] | Not Resistant
